Data set [1] has as its target T1, PA1618 (Pseudomonas aeruginosa, UniProt Q9I3A4). Description: steady-state competitive inhibition of benzoyl-CoA hydrolysis. In kind it is biochemical.
Data set [2] concerns the target T1, PA1618. Description: X-ray crystal structure. Type of data set: biochemical.
The test system of data set [3] is CC(C)(COP(=O)(O)OP(=O)(O)OC[C@H]1O[C@@H](n2cnc3c(N)ncnc32)[C@H](O)[C@@H]1OP(=O)(O)O)[C@@H](O)C(=O)NCCC(=O)NCCSC(=O)c1ccccc1. Description: steady-state kinetics. In kind it is biochemical, Pseudomonas aeruginosa. The settings on record: pH 7.5; 25.0 °C.
The target of data set [4] is T1, PA1618. As to the kind of experiment: X-ray crystal structure. Type of data set: biochemical. The source holds these as a separate data set.
Substrate in data set [5]: CC(C)(COP(=O)(O)OP(=O)(O)OC[C@H]1O[C@@H](n2cnc3c(N)ncnc32)[C@H](O)[C@@H]1OP(=O)(O)O)[C@@H](O)C(=O)NCCC(=O)NCCSC(=O)c1cc(O)c2ccccc2c1O
Description: steady-state kinetics. In kind it is biochemical, Pseudomonas aeruginosa. As to conditions: pH 7.5; 25.0 °C.

Substrate in data set [6]: CCCCCC(=O)SCCNC(=O)CCNC(=O)[C@H](O)C(C)(C)COP(=O)(O)OP(=O)(O)OC[C@H]1O[C@@H](n2cnc3c(N)ncnc32)[C@H](O)[C@@H]1OP(=O)(O)O
Description: steady-state kinetics. Type of data set: biochemical, Pseudomonas aeruginosa. The settings on record: pH 7.5; 25.0 °C.

Substrate in data set [7]: CC(C)(COP(=O)(O)OP(=O)(O)OC[C@H]1O[C@@H](n2cnc3c(N)ncnc32)[C@H](O)[C@@H]1OP(=O)(O)O)[C@@H](O)C(=O)NCCC(=O)NCCSC(=O)/C=C/c1ccc(O)cc1
As to the kind of experiment: steady-state kinetics. Type of data set: biochemical, Pseudomonas aeruginosa. The settings on record: pH 7.5; 25.0 °C.

Substrate in data set [8]: CC(C)(COP(=O)(O)OP(=O)(O)OC[C@H]1O[C@@H](n2cnc3c(N)ncnc32)[C@H](O)[C@@H]1OP(=O)(O)O)[C@@H](O)C(=O)NCCC(=O)NCCSC(=O)c1ccccc1
Description: steady-state kinetics. In kind it is biochemical, Pseudomonas aeruginosa. The settings on record: pH 7.5; 25.0 °C. The source holds these as a separate data set.

Substrate in the data set “purified protein”: CC(C)(COP(=O)(O)OP(=O)(O)OC[C@H]1O[C@@H](n2cnc3c(N)ncnc32)[C@H](O)[C@@H]1OP(=O)(O)O)[C@@H](O)C(=O)NCCC(=O)NCCSC(=O)c1ccc(O)cc1
As to the kind of experiment: purified protein. In kind it is biochemical, Pseudomonas aeruginosa. The settings on record: pH 7.5; 25.0 °C.

The Ki is a dissociation constant, usually derived from enzyme kinetics or from competition with a known ligand. `CCCCCCCCCCC(=O)SCCNC(=O)CCNC(=O)[C@H](O)C(C)(C)COP(=O)(O)OP(=O)(O)OC[C@H]1O[C@@H](n2cnc3c(N)ncnc32)[C@H](O)[C@@H]1OP(=O)(O)O` [Undecanyl-CoA]: on PA1618 [1] (read-out: PA1618 Ki), the Ki stood at 3.4 ± 0.3 µM.
Regarding `CC(C)(COP(=O)(O)OP(=O)(O)OC[C@H]1O[C@@H](n2cnc3c(N)ncnc32)[C@H](O)[C@@H]1O)[C@@H](O)C(=O)NCCC(=O)NCCOC(=O)c1ccccc1` [Benzoyl-OdCoA], the Ki on PA1618 [2] amounted to 19 ± 3 µM.
What is called Km is the concentration of substrate that gives half-maximal velocity. The term kcat denotes the number of substrate molecules converted per active site and unit of time at saturation. The term kcat/Km denotes the second-order rate constant that governs catalysis at low substrate concentration. Turning to “PA1618 (Pseudomonas aeruginosa PAO1; Q49A)”, in data set [3], the Michaelis constant (Km) came to 5.0 ± 0.3 µM, the kcat came out at 0.022 ± 0.003 s⁻¹ and the kcat/Km was 4400 M⁻¹ s⁻¹.
For `CC(C)(COP(=O)(O)OP(=O)(O)OC[C@H]1O[C@@H](n2cnc3c(N)ncnc32)[C@H](O)[C@@H]1OP(=O)(O)O)[C@@H](O)C(=O)NCCC(=O)NCCSCC(=O)c1ccc(O)cc1O` [2,4-Dihydroxyphenacyl-CoA], the inhibition constant Ki on PA1618 [1] was determined as 12 ± 1 µM.
On to `CC(C)(COP(=O)(O)OP(=O)(O)OC[C@H]1O[C@@H](n2cnc3c(N)ncnc32)[C@H](O)[C@@H]1OP(=O)(O)O)[C@@H](O)C(=O)NCCC(=O)NCCSCC(=O)c1ccccc1` [Phenacyl-CoA], for which the Ki at PA1618 [4] came out at 35 ± 5 µM.

B1: PA1618 (Pseudomonas aeruginosa PAO1) (protein)
chain: MSLWRQTPDLEQLNASQKNSIGDLLGIRFEAFDDESLTASMPVDSRTHQPFGLLHGGASVVLAESLGSMASYLCVDTSQYYCVGLEVNANHLRGLRSGRVTAVARAIHLGRTTHVWDIRLSGDDGKPSCIARLTMAVVPLAGRAG
In the case of B1, the Michaelis constant (Km) in “steady-state kinetics [5]” came out at 2.1 ± 0.1 µM; in the data set “steady-state kinetics [6]”, 20 ± 2 µM; in “steady-state kinetics [7]” it was 2.7 ± 0.2 µM; in “steady-state kinetics [8]” it was 12 ± 1 µM; in the data set “purified protein” it was 3.6 ± 0.3 µM. The kcat in “steady-state kinetics [5]” stood at 0.55 ± 0.01 s⁻¹; in “steady-state kinetics [6]” it was 0.11 ± 0.01 s⁻¹; in “steady-state kinetics [7]”, 2.5 ± 0.1 s⁻¹; in the data set “steady-state kinetics [8]”, 56 ± 1 s⁻¹; in the data set “purified protein” it was 9.3 ± 0.2 s⁻¹. Also, the catalytic efficiency (kcat/Km) in the data set “steady-state kinetics [5]” turned out to be 280000 M⁻¹ s⁻¹; in “steady-state kinetics [6]” it was 5200 M⁻¹ s⁻¹; in “steady-state kinetics [7]”, 930000 M⁻¹ s⁻¹; in the data set “steady-state kinetics [8]”, 4.6e+06 M⁻¹ s⁻¹; in “purified protein” it was 3.1e+06 M⁻¹ s⁻¹.

Source of the values: PMC6328252 (Chembiochem : a European journal of chemical biology, 2017).
